These results are taken from US20190309044A1, “POLYPEPTIDES AND USES THEREOF AS A DRUG FOR TREATMENT OF AUTOIMMUNE DISORDERS” (Compugen Ltd., priority 2017, published 2019).

For assay [1], the system named is SJL/J mice. Nature of the assay: Trafficking of transferred cells into the CNS by flow cytometry, adoptive transfer R-EAE. The assay is classed as in vivo, mouse. The note with it: day +10 post cell transfer. Here is the method:
PLP139-151 sensitized cells were generated as described in Materials and Methods (cell counts in the reactivation culture are presented in Table 2) and labeled with PBSE (4 uM) before transfer to naïve mice. In study “Cgen data” (FIG. 12), disease was induced in recipient mice (n=10 per group) by i.v. transfer of 5×10^6 blast cells to each recipient mouse. A relatively large number of transferred cells were used in order to allow detection of the transferred cells by flow cytometry analysis at the end of the study. Mice were split into Control Ig and C1ORF32 ECD-Fc (SEQ ID NO:42) treatment groups, receiving 100 ug/dose intraperitoneal injection three times per week for 2 weeks. On Day +14 after cell transfer, 5 representative mice from each group were selected for analysis of trafficking of transferred cells into the CNS. Spleens, cervical lymph nodes, and CNS were collected, and the number of PBSE- or PBSE+/CD45+/CD3+/CD4+ T cells was analyzed by flow cytometric analysis.
An additional experiment (designated “MYC48 FACS”, FIG. 13) was performed using an alternative staining follow-up approach. […] To evaluate C1ORF32 ECD-Fc (SEQ ID NO:42) effect on immune cell trafficking to the CNS, spleens, cervical lymph nodes, and CNS cells collected form 5 mice on day +10 post cell transfer, and the number of transferred CD45hi PBSE+ or GFP+ cells was analyzed by flow cytometry. […]

The test system of assay [2] is healthy human skin transplanted onto beige-SCID mice. Nature of the assay: Humanized psoriasis model, human skin xenografts on beige-SCID mice. It counts as in vivo, mouse. The note with it: IHC; vs PBS. The text has this: In this model, psoriasis is induced in xenotransplants of healthy human skin transplanted onto beige severe combined immunodeficiency (SCID) mice followed by intradermal (i.d.) injection of IL-2 enriched Peripheral Blood Mononuclear Cells (PBMCs) isolated from blood of psoriasis patients (Nickoloff, 1995; Wrone-Smith, 1996 Gilhar et al., 2002, 2006, 2011). The activity of these compounds was compared to that of Enbrel, a TNF inhibitor which is an approved biological drug for treatment of psoriasis. As a control for model robustness, we used dexamethasone, a steroid with suppressive effects on inflammatory cytokines and chemokines such as TNF-alpha and interferon-gamma which cause severe psoriasis. All treatments were administered intradermally, except for dexamethasone which was given topically.
2.2. Study Protocol A) Healthy human skin pieces with a width of 0.4 mm and surface area of 1.5×1.5 cm were provided from residual skin of routine plastic surgery procedures from the Plastic Surgery Department of the Rambam Medical Center, Israel. In addition, 20 mL blood samples were taken from psoriatic patients. B) Seventy (70) beige-severe combined immunodeficient mice (SCID) (weight ˜20-25 g) were included in this study. Normal healthy human donor skin was transplanted onto the beige-SCID mice as previously described (Nickoloff et al., 1995; Wrone-Smith, 1996; Gilhar et al., 2002, 2006, 2011; Kalish et al., 2009) and the mice were divided into 7 groups. C) Peripheral Blood Mononuclear Cells (PBMCs) isolated from psoriatic patients' blood were cultured in the presence of IL-2 [Prospec, 100 U/mL of RPMI 1640 media, 10% human AB serum (Sigma, St. Louis, Mo.), 1% glutamine, 1% antibiotics (media components; Biological Industries, Kibbutz Beit Haemeck, Israel)] for 14 days, as previously described (Gilhar et al, 2002). D) Four weeks following engraftment, each mouse was injected intra-dermally (i.d.) into the grafted skin lesion, with 1×10^7 activated allogeneic enriched PBMCs from psoriatic patients (FIG. 20). Cells from different psoriasis patients were equally distributed between treatment groups so that each patient is represented in each treatment group. E) On the day of PBMCs injection into the skin grafts, mice were divided randomly into treatment groups (n=9-10 mice per group) and administration of all drugs started (FIG. 20). All tested compounds including the vehicle were given intradermally (intralesional), three times a week, except for dexamethasone which was given topically for 14 consecutive days (Table 3).
F) Twenty eight days after starting the injections and treatment, skin was harvested (FIG. 20). Grafts were analyzed for the following psoriatic parameters by histology: epidermal thickening (acanthosis), suprapapillary epidermal thinning (papillomatosis), hyperkeratosis, parakeratosis, orthokeratosis, agranulosis-hypogranulosis, appearance of neutrophils in the upper spinous layer or in the corneal cell layer—Munro microabscess, regular elongation of rete ridges, angiogenesis, edema and dilated tortuous blood vessels in the dermal papilla and mononuclear cell infiltrate in the papillary dermis. Epidermal thickness was measured as detailed below, and HLA-DR, ICAM-1, Ki-67 and immune infiltrates (anti-CD3 stain) were evaluated by immunohistochemistry (IHC).
The entire skin graft was excised and placed in 10% formal saline overnight. Then, the specimens were place in 70% ethanol and were embedded according to the standard H&E protocol. Histological assessment of the skin grafts was performed by light microscopy and evaluated by two blinded observers [the second observer evaluated random slides (about 25% of all slides) to compare the data obtained by the first observer. […] Epidermal thickness was determined with an ocular micrometer at a minimum of 50 points along the epidermis selected to represent points of maximal and minimal thickness.
Representative grafts were allocated for IHC analysis. […]
A general note: A xenograft is tissue or cells of one species grown in another, often human tumour cells in immunodeficient mice.

B1: C1ORF32 ECD-Fc (SEQ ID NO:42): human-mouse fusion protein: human C1ORF32 ECD fused to mouse immunoglobulin Fc (SEQ ID NO:42) (protein)
chain: LQVTVPDKKKVAMLFQPTVLRCHFSTSSHQPAVVQWKFKSYCQDRMGESLGMSSTRAQSLSKRNLEWDPYLDCLDSRRTVRVVASKQGSTVTLGDFYRGREITIVHDADLQIGKLMWGDSGLYYCIITTPDDLEGKNEDSVELLVLGRTGLLADLLPSFAVEIMGSENLYFQGSGEPRGPTIKPCPPCKCPAPNLLGGPSVFIFPPKIKDVLMISLSPIVTCVVVDVSEDDPDVQISWFVNNVEVHTAQTQTHREDYNSTLRVVSALPIQHQDWMSGKEFKCKVNNKDLPAPIERTISKPKGSVRAPQVYVLPPPEEEMTKKQVTLTCMVTDFMPEDIYVEWTNNGKTELNYKNTEPVLDSDGSYFMYSKLRVEKKNWVERNSYSCSVVHEGLHNHHTTKSFSRTPGK
modifications: Fusion protein human C1ORF32-ECD fused to mouse IgG2a Fc
As to B1, the “number of total or activated transferred T cells in spleen and cervical lymph nodes” value in assay [1] is on record as “No change”. The “infiltration of T cells (CD3 positive cells)” value in assay [2] is reported as “significant reduction”.
